± gives the standard deviation of the averaged measurements. Bounds are passed on as bounds.

This data set is described as follows: total protein half-life in vivo (active degradation + dilution); higher = more stable protein.
Setting [1] is: E. coli NCM3722 delta-clpP delta-lon delta-hslV, growth: N-lim chemostat, doubling time 6 h.
Setting [2] is: E. coli NCM3722 delta-clpP, growth: N-lim chemostat, doubling time 6 h.
The mark [3] stands for this setting: E. coli NCM3722 delta-hslV, growth: N-lim chemostat, doubling time 6 h.
Where [4] appears, read: E. coli NCM3722 delta-lon, growth: N-lim chemostat, doubling time 6 h.
Setting [5] is: E. coli NCM3722 delta-smpB, growth: N-lim chemostat, doubling time 6 h.
The mark [6] stands for this setting: wild type E. coli NCM3722, growth: C-lim chemostat, doubling time 3 h.
Setting [7] is: wild type E. coli NCM3722, growth: C-lim chemostat, doubling time 6 h.
The mark [8] stands for this setting: wild type E. coli NCM3722, growth: C-lim chemostat, doubling time 12 h.
The mark [9] stands for this setting: wild type E. coli NCM3722, growth: N-lim chemostat, doubling time 6 h.
The mark [10] stands for this setting: wild type E. coli NCM3722, growth: N-lim chemostat, doubling time 12 h.
Setting [11] is: wild type E. coli NCM3722, growth: P-lim chemostat, doubling time 6 h.
The mark [12] stands for this setting: wild type E. coli NCM3722, growth: P-lim chemostat, doubling time 12 h.

On to “MTVQTSKNPQVDIAEDNAFFPSEYSLSQYTSPVSDLDGVDYPKPYRGKHKILVIAADERYLPTDNGKLFSTGNHPIETLLPLYHLHAAGFEFEVATISGLMTKFEYWAMPHKDEKVMPFFEQHKSLFRNPKKLADVVASLNADSEYAAIFVPGGHGALIGLPESQDVAAALQWAIKNDRFVISLCHGPAAFLALRHGDNPLNGYSICAFPDAADKQTPEIGYMPGHLTWYFGEELKKMGMNIINDDITGRVHKDRKLLTGDSPFAANALGKLAAQEMLAAYAG”, for which the “total protein half-life in vivo” value runs as follows: under setting [1], 5.25 ± 1.1 h; under setting [2], 5.29 ± 1.6 h; under setting [3], 4.05 ± 0.35 h; under setting [4], 4.62 ± 0.19 h; under setting [5], 4.27 ± 0.24 h; under setting [6], 2.88 ± 0.26 h. Besides, the “total protein half-life in vivo” value by setting is: under setting [7], 5.19 ± 0.35 h; under setting [8], 10.6 ± 0.23 h; under setting [9], 3.97 ± 0.85 h; under setting [10], 7.51 ± 0.27 h; under setting [11], 5.31 ± 0.43 h; under setting [12], 10.5 ± 1.5 h.
As to “MRVNLLITMIIFALIWPVTALRAAVSKTTWADAPAREFVFVENNSDDNFFVTPGGALDPRLTGANRWTGLKYTGSGTIYQQSLGYIDNGYNTGLYTNWKFDMWLENSPVSSPLTGLRCINWYAGCNMTTSLILPQTTDASGFYGATVTSGGAKWMHGMLSDAFYQYMQQMPVGSSFTMTINACQTSVNYDASSGARCKDQASGNWYVRNVTHTKAANLRLINTHSLAEVFINSDGVPTLGEGNADCRTQTIGSRSGLSCKMVNYTLQTNGLSNTSIHIFPAIANSSLASAVGAYDMQFSLNGSSWKPVSNTAYYYTFNEMKSADSIYVFFSSNFFKQMVNLGISDINTKDLFNFRFQNTTSPESGWYEFSTSNTLIIKPRDFSISIISDEYTQTPSREGYVGSGESALDFGYIVTTSGKTAADEVLIKVTGPAQVIGGRSYCVFSSDDGKAKVPFPATLSFITRNGATKTYDAGCDDSWRDMTDALWLTTPWTDISGEVGQMDKTTVKFSIPMDNAISLRTVDDNGWFGEVSASGEIHVQATWRNIN”, the “total protein half-life in vivo” value worked out at 5.48 h under setting [1]; 4.16 ± 0.31 h under setting [2]; 4.45 ± 0.53 h under setting [3]; 5.38 ± 0.3 h under setting [5]; 2.41 h under setting [6]; 5.13 ± 0.19 h under setting [7]. Further, the “total protein half-life in vivo” value was 10.2 ± 0.39 h under setting [8]; 5.187 ± 0.038 h under setting [9]; 10.3 h under setting [10]; 6.55 h under setting [11]; 10.9 ± 2.3 h under setting [12].
Turning to “MSKLFWAMLSFITRLPVPRRWSQGLDFEHYSRGIITFPLIGLLLGAISGLVFMVLQAWCGAPLAALFSVLVLVLMTGGFHLDGLADTCDGVFSARSRDRMLEIMRDSRLGTHGGLALIFVVLAKILVLSELALRGESILASLAAACAVSRGTAALLMYRHRYAREEGLGNVFIGKIDGRQTCVTLGLAAIFAAVLLPGMHGVAAMVVTMVAIFILGQLLKRTLGGQTGDTLGAAIELGELVFLLALL”, the “total protein half-life in vivo” value reads like this: under setting [1], 7.472 ± 0.028 h; under setting [2], 6.699 ± 0.053 h; under setting [3], 6.15 ± 0.36 h; under setting [4], 6.52 h; under setting [5], above 8 h; under setting [6], 3.48 ± 0.11 h. Further, the “total protein half-life in vivo” value is, setting by setting: under setting [7], 5.85 ± 0.84 h; under setting [8], 12.7 ± 1.4 h; under setting [9], 5.87 ± 0.4 h; under setting [10], 11.3 h; under setting [11], 5.6 h; under setting [12], 12.4 ± 1.2 h.
Turning to “MTRKQATIAVRSGLNDDEQYGCVVPPIHLSSTYNFTGFNEPRAHDYSRRGNPTRDVVQRALAELEGGAGAVLTNTGMSAIHLVTTVFLKPGDLLVAPHDCYGGSYRLFDSLAKRGCYRVLFVDQGDEQALRAALAEKPKLVLVESPSNPLLRVVDIAKICHLAREVGAVSVVDNTFLSPALQNPLALGADLVLHSCTKYLNGHSDVVAGVVIAKDPDVVTELAWWANNIGVTGGAFDSYLLLRGLRTLVPRMELAQRNAQAIVKYLQTQPLVKKLYHPSLPENQGHEIAARQQKGFGAMLSFELDGDEQTLRRFLGGLSLFTLAESLGGVESLISHAATMTHAGMAPEARAAAGISETLLRISTGIEDGEDLIADLENGFRAANKG”, the “total protein half-life in vivo” value was 4.37 ± 0.79 h under setting [1]; 4.07 ± 0.43 h under setting [2]; 3.31 ± 0.36 h under setting [3]; 4.53 ± 0.59 h under setting [4]; 3.95 ± 0.28 h under setting [5]; 3.1 ± 0.16 h under setting [6]. In addition, the “total protein half-life in vivo” value is 4.98 ± 0.61 h under setting [7]; 10 ± 0.44 h under setting [8]; 3.56 ± 0.17 h under setting [9]; 5.84 ± 0.7 h under setting [10]; 5.83 ± 0.5 h under setting [11]; 11.7 ± 1.1 h under setting [12].
As to “MLVVELIIVLLAIFLGARLGGIGIGFAGGLGVLVLAAIGVKPGNIPFDVISIIMAVIAAISAMQVAGGLDYLVHQTEKLLRRNPKYITILAPIVTYFLTIFAGTGNISLATLPVIAEVAKEQGVKPCRPLSTAVVSAQIAITASPISAAVVYMSSVMEGHGISYLHLLSVVIPSTLLAVLVMSFLVTMLFNSKLSDDPIYRKRLEEGLVELRGEKQIEIKSGAKTSVWLFLLGVVGVVIYAIINSPSMGLVEKPLMNTTNAILIIMLSVATLTTVICKVDTDNILNSSTFKAGMSACICILGVAWLGDTFVSNNIDWIKDTAGEVIQGHPWLLAVIFFFASALLYSQAATAKALMPMALALNVSPLTAVASFAAVSGLFILPTYPTLVAAVQMDDTGTTRIGKFVFNHPFFIPGTLGVALAVCFGFVLGSFML [P0ABN5]”, the “total protein half-life in vivo” value under setting [1] turned out to be 5.71 h; the “total protein half-life in vivo” value under setting [2] is 6.38 ± 0.28 h; the “total protein half-life in vivo” value under setting [5] amounted to 5.933 ± 0.026 h; the “total protein half-life in vivo” value under setting [6] is above 4 h; the “total protein half-life in vivo” value under setting [7] was determined as 6.25 h; the “total protein half-life in vivo” value under setting [11] stood at 6.8 ± 0.54 h. Under setting [12], the “total protein half-life in vivo” value was 12.4 ± 0.89 h.
As to “MTYAVEFDNVSRLYGDVRAVDGVSIAIKDGEFFSMLGPSGSGKTTCLRLIAGFEQLSGGAISIFGKPASNLPPWERDVNTVFQDYALFPHMSILDNVAYGLMVKGVNKKQRHAMAQEALEKVALGFVHQRKPSQLSGGQRQRVAIARALVNEPRVLLLDEPLGALDLKLREQMQLELKKLQQSLGITFIFVTHDQGEALSMSDRVAVFNNGRIEQVDSPRDLYMRPRTPFVAGFVGTSNVFDGLMAEKLCGMTGSFALRPEHIRLNTPGELQANGTIQAVQYQGAATRFELKLNGGEKLLVSQANMTGEELPATLTPGQQVMVSWSRDVMVPLVEER”, the “total protein half-life in vivo” value runs as follows: under setting [1], 6.01 ± 0.38 h; under setting [2], 6.427 ± 0.038 h; under setting [3], 5.58 ± 0.28 h; under setting [4], 4.65 ± 1.3 h; under setting [5], 5.64 ± 0.085 h; under setting [8], 10.2 ± 0.023 h. Besides, the “total protein half-life in vivo” value was determined as 4.78 ± 0.27 h under setting [9], 10.4 ± 0.55 h under setting [10], 4.68 h under setting [11] and 10.8 ± 1.8 h under setting [12].

These data come from the supplement of paper PMC11246515.
